Substrate in this data set: NC(=O)CCC(N)C(=O)Nc1ccc2ccccc2c1
In words: Continuous spectrophotometric QC assay (glutamate dehydrogenase coupled), substrate kinetics.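 Further: initial rates read on a microplate reader at 30 °C, with enzyme activity quantified against an ammonia calibration curve under the same assay conditions.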 The following applies: other: Human QC. It is filed as biochemical.

Where [1] appears, read: 0.05M Tris-HCl, pH 8.0, 0.5 M KCl, pH 8.0.

Description: The initial velocities were evaluated and the enzymatic activity was determined from a standard curve of ammonia under assay conditions. All samples were measured at 30° C., using either the [sequence]luor Plus or the Sunrise (both from TECAN) reader for microplates. Kinetic data was evaluated using GraFit software.

B1: human QC (Homo sapiens) (protein)
chain: VSPSASAWPEEKNYHQPAILNSSALRQIAEGTSISEMWQNDLQPLLIERYPGSPGSYAARQHIMQRIQRLQADWVLEIDTFLSQTPYGYRSFSNIISTLNPTAKRHLVLACHYDSKYFSHWNNRVFVGATDSAVPCAMMLELARALDKKLLSLKTVSDSKPDLSLQLIFFDGEEAFLHWSPQDSLYGSRHLAAKMASTPHPPGARGTSQLHGMDLLVLLDLIGAPNPTFPNFFPNSARWFERLQAIEHELHELGLLKDHSLEGRYFQNYSYGGVIQDDHIPFLRRGVPVLHLIPSPFPEVWHTMDDNEENLDESTIDNLNKILQVFVLEYLHL
notes: The cDNA of the mature QC starting with codon 38 was fused in frame with the plasmid encoded 6× histidine tag; 6xHis; made in house; host or cells: Pichia pastoris X33 (pPICZαB, secreted); also E. coli M15 (pQE-31)
For the protein B1, for the setting “0.05M Tris-HCl, pH 8.0”, the Michaelis-Menten constant (Km) turned out to be 76 ± 4 µM, the turnover number (kcat) worked out at 21.7 ± 0.5 s⁻¹ and the kcat/Km turned out to be 285000 ± 8000 M⁻¹ s⁻¹. Besides, under setting [1], the Km was 63 ± 3 µM, the kcat was determined as 20.0 ± 0.4 s⁻¹ and the kcat/Km turned out to be 318000 ± 9000 M⁻¹ s⁻¹. Under “pH 8.8”, the Km stood at 70 ± 3 µM and the catalytic constant (kcat) is 20.6 ± 0.5 s⁻¹.

As a reminder, the Km is the substrate concentration at which the rate is half of its maximum. As usually defined, the kcat is the number of substrate molecules converted per active site and unit of time at saturation. A word on the kcat/Km: it is the turnover number divided by the Michaelis constant.

The values are drawn from patent US8809010B2, “Method for prophylactic treatment of alzheimer's disease using inhibitors of glutaminyl cyclase and glutamate cyclases” (Probiodrug AG, priority 2003, dated 2014).
